In patent US20250197448A1, “CYCLOPEPTIBODIES AND USES THEREOF” (University of Rochester, priority 2022, published 2025):
“Also recorded” adds a separate entry of the source. Starred links: 1 amine or outer side, 2 acyl side, 3 side chain; linkers in the order of their positions; H or OH if unused. Positions of bridges follow the written chain, without caps; N, C: chain ends. Non-standard residues stand in square brackets, D forms with d. No end group written: not given here. O2beY = O-(2-bromoethyl)-tyrosine (p-2beF), reacts with Cys to form a thioether, O=C([C@H](Cc1ccc(OCCBr)cc1)N[*:1])[*:2]; pCaaF = p-(2-chloroacetamido)-phenylalanine, O=C(CCl)Nc1ccc(C[C@H](N[*:1])C(=O)[*:2])cc1

Legend:
[1] = serum stability assay in human blood serum; type: in vitro ADME
Method: The proteolytic stability of cyclopeptibodies cCLP003-Tras-Fc and L2-m5-Tras-Fc were assessed by incubating these proteins in human blood serum, followed by measurement of the cyclopeptibody activity using an in vitro binding assay with plate-immobilized PD-L1 or Sh as described in Example 7 and 8, respectively.
Serum stability Assay. The human male serum (Sigma-Aldrich) was clarified by centrifugation at 14 000 rpm for 15 min. 50% serum was prepared in phosphate-buffered saline (pH 7.4), then incubated at 37° C. Cyclopeptiodies were dissolved in 30 μL of 50% serum at a final concentration of 1 μM, incubated at 37° C. Serum samples with diluted cyclopeptibodies were prepared in the same way described above over a time course of 30 h for cCLP003-Tras-Fc-His and 24 h for L2-m5-Tras-Fc-His, followed by incubated at 37° C. Intact cyclopeptibodies in serum were quantified using the binding assay described above. In the assay, immobilized PD-L1 or Shh was incubated with 100 μL of serum samples diluted with PBS (1:10 dilution for cCLP003-Tras-Fc-His, 1:100 dilution for L2-m5-Tras-Fc-His). Intact cyclopeptibody in each sample was detected with HRP-conjugate mouse anti-FLAG polyclonal antibody. The absolute concentration of intact cyclopeptibody in each serum sample was quantified using a calibration curve, which was generated from a binding assay in which immobilized PD-L1 or Shh was incubated with cyclopeptibody in serial dilution (0-100 nM for cCLP003-Tras-Fc-His; 0-10 nM for L2-m5-Tras-Fc-His), followed by detected with HRP-conjugate mouse anti-FLAG polyclonal antibody, absorbance at 450 nm was measured as a function of cyclopeptibody concentration.

Sonic Hedgehog (Shh) = Sonic Hedgehog (Shh) (Homo sapiens, UniProt Q15465); experiment: in vitro Shh binding assay (plate-immobilized Shh)
Method: Streptavidin Binding Assay. For the streptavidin binding assays, streptavidin-coated plates (Sigma-Aldrich) were used. For the Keap1, Shh and PD-L1 binding assay, target protein was immobilized on microtiter plates by incubating 100 μL of a 4 μM protein solution in PBS buffer overnight at 4° C., followed by decanting the protein solution and blocking with 0.5% bovine serum albumin in PBS for 2 h at room temperature. After washing (3×150 μL of PBS with 0.05% Tween-20), each well was incubated with 100 μL of purified FLAG-tagged cyclopeptibody at varying concentrations for 1 hour at room temperature. After washing three times with wash buffer, each well was incubated with 100 μL of 1:2500 dilution of HRP-conjugate mouse anti-FLAG polyclonal antibody (Sigma-Aldrich) for 1 hour at room temperature. After washing three times with wash buffer, 100 μL of 2.2 mM o-phenylenediamine dihydrochloride, 4.2 mM urea hydrogen peroxide, 100 mM dibasic sodium phosphate, and 50 mM sodium citrate, pH 5.0, were added to each well, followed by measurement of the absorbance at 450 nm after 10-20 min using a Tecan Infinite 1000 plate reader. Equilibrium dissociation constants (Kp) were determined by fitting the dose-response curves to a 1:1 binding isotherm equation via nonlinear regression. using SigmaPlot. Mean values and standard deviations were calculated from experiments performed in triplicate. […]

PD-1/PD-L1 interaction = target: T1, PD-1/PD-L1 interaction (Homo sapiens, UniProt Q9NZQ7); experiment: PD-L1 competition assay with biotinylated PD-1; type: binding
T1 construct: poly-histidine (C); made in house; PD-1 co-expressed with BirA
T1 sequence (Q9NZQ7 19-238 limits assumed): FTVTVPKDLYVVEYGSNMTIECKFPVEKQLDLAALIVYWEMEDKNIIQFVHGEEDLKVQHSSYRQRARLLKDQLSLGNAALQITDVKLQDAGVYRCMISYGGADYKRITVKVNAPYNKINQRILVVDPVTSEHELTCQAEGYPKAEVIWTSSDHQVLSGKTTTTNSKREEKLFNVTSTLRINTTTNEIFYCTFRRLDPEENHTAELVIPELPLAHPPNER
Method: Next, we examined the ability of the cyclopeptibody cCLP003-Tras-Fc to inhibit the PD-1/PD-L1 interaction using a competition assay with recombinant biotinylated PD-1 (Bio-PD-1). Briefly, PD-L1 immobilized on a plate was incubated with Bio-PD-1 and varying concentrations of cCLP003-Tras-Fc or control Fc. The PD-L1-bound PD-1 was then quantified colorimetrically (OD450) using horseradish peroxidase (HRP)-conjugated streptavidin.
PD-L1 Competition Assay. PD-L1 was immobilized on microtiter plates as described above. followed by decanting the protein solution and blocking with 0.5% bovine serum albumin in PBS for 2 h at room temperature. After washing, each well was incubated with 100 μL of serial dilutions of cCLP003-Tras-Fc-His for 1 hour at room temperature. Biotinylated PD-1 (500 nM) was added and incubated for 1 h at room temperature. After washing, the bound PD-1 was quantified by means of HRP-conjugate Streptavidin and colorimetric assay as described above. The inhibitory constant (IC50) was determined by fitting the dose-response curves to a 4-parameter equation via nonlinear regression using SigmaPlot. Mean values and standard deviations were calculated from experiments performed in triplicate.

[2] = target: T2, PD-L1 receptor on MDA-MB-231 cells (Homo sapiens, UniProt Q9NZQ7); experiment: flow cytometry of MDA-MB-231 cells, PD-L1 labeling with FITC anti-human IgG Fc; type: cell-based; conditions: concentration not given at the place
T2 construct: known to express high levels of PD-L1 on their surface; endogenous in cells; host or cells: MDA-MB-231
T2 sequence (Q9NZQ7 19-290): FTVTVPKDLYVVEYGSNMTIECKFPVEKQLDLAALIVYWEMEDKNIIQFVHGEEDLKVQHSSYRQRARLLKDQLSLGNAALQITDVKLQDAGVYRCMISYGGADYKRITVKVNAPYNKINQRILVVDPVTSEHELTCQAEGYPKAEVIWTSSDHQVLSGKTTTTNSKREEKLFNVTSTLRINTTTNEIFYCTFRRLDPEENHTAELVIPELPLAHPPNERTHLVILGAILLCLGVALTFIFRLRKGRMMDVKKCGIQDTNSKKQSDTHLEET
Method: The cells were then incubated with fluorescein-conjugated anti-human IgG Fc antibody and analyzed by flow cytometry. The same experiment was carried out in parallel using commercially available anti-PD-L1 antibody as positive control and various negative controls.
Flow Cytometry Analysis. […] When confluent, media was aspirated, cells were washed once with 1×DPBS (no calcium, no magnesium) (Gibco). Adherent cells were detached from the petri dish with 1 mL of accutase (Gibco) pre-warmed to 37° C., followed by incubated for 5 min at 37° C. Cells were spun down using centrifugation. Supernatant was removed and cells were washed three times with staining buffer (1×PBS with 0.5% BSA). Cells were resuspended in Eppendorf tubes in 100 μL PBS at a concentration of 107cells per mL. […] Eppendorf tubes were then placed on the platform shaker for gently shaking for 1 hour at room temperature. After 1 hour, cells were spun down using centrifugation, then supernatant was removed. […] Cells were washed as described above, then resuspended in 400 μL staining buffer. […] The cells of interest were gated using Forward and Side scatter (FSC/SSC). 10,000 singlet events were collected for each specimen.

[3] = target: T3, integrin αvβ3 on MDA-MB-231 cells (Homo sapiens, UniProt P05106+P06756); experiment: flow cytometry of MDA-MB-231 cells, integrin receptor labeling; type: cell-based; conditions: for labeling of integrin receptors on MDA-MB-231 cells (in words): FITC anti-IgG1 Fc detection
T3 construct: known to express high levels of integrin αvβ3 on their surface; endogenous in cells; host or cells: MDA-MB-231
T3 sequence (P06756 31-889 limits assumed): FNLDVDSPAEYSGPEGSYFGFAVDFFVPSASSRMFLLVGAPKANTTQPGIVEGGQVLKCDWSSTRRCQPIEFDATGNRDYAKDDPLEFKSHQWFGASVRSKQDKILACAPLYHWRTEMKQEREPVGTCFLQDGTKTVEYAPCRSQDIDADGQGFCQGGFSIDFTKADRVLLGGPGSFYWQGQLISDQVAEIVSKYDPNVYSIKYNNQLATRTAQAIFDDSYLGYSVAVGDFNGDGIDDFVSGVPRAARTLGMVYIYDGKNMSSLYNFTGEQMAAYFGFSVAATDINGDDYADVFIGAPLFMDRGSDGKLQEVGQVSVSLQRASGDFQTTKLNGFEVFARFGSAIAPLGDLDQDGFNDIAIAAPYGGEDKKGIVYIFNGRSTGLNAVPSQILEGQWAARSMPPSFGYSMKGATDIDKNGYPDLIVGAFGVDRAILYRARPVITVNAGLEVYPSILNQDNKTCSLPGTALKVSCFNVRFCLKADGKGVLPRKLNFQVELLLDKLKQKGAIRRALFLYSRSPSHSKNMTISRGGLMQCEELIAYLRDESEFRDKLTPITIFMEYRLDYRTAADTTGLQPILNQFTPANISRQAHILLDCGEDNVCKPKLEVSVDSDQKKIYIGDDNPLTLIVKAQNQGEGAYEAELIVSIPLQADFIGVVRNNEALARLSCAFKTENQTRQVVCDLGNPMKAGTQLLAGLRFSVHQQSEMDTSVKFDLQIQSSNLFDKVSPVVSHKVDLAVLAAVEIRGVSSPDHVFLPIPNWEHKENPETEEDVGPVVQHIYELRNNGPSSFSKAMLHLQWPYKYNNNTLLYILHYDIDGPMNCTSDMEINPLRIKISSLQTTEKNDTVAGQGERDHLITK
T3 sequence (P06756 891-1048 partner limits assumed): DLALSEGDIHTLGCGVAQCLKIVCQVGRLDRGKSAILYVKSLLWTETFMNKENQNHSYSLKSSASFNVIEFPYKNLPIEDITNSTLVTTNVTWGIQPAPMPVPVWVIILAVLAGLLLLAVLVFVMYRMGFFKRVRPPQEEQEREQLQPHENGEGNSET
T3 sequence (P05106 27-788): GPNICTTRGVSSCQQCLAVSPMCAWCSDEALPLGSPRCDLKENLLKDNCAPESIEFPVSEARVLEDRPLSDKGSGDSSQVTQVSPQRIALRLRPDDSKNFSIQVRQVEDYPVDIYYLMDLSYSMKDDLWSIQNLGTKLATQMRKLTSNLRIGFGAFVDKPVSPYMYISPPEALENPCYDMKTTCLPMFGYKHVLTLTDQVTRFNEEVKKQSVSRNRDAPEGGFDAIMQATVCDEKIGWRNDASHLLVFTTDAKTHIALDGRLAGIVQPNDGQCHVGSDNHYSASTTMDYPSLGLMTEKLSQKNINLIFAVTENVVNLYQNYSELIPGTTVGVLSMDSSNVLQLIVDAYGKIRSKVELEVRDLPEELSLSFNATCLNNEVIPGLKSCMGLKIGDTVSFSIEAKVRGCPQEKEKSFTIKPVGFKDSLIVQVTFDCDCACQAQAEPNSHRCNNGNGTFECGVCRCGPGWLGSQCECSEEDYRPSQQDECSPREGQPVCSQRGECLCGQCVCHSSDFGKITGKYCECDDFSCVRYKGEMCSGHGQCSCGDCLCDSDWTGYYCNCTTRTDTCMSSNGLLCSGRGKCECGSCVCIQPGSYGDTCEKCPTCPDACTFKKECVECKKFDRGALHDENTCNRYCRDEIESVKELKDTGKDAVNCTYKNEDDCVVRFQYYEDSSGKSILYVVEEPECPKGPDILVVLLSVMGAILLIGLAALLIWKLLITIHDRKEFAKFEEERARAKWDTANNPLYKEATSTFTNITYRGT
Method: Flow Cytometry Analysis. Cell line MDA-MB-231 was grown in culture to reach confluency. When confluent, media was aspirated, cells were washed once with 1×DPBS (no calcium, no magnesium) (Gibco). Adherent cells were detached from the petri dish with 1 mL of accutase (Gibco) pre-warmed to 37° C., followed by incubated for 5 min at 37° C. Cells were spun down using centrifugation. Supernatant was removed and cells were washed three times with staining buffer (1×PBS with 0.5% BSA). Cells were resuspended in Eppendorf tubes in 100 μL PBS at a concentration of […]. Cyclopeptibodies or Human anti-PD-L1 antibody (1 μg) (R&D Systems, MAB10355) in staining buffer were then added to the tubes with a concentration of 1.5 μM in 200 μL. Eppendorf tubes were then placed on the platform shaker for gently shaking for 1 hour at room temperature. After 1 hour, cells were spun down using centrifugation, then supernatant was removed. After washing three times, cells were resuspended in 200 μL of Fluorescein (FITC) AffiniPure Goat Anti-Human IgG with working concentration of 30 μg/mL (Jackson ImmunoResearch, 109-095-098), incubated in the dark for 30 min at room temperature. Cells were washed as described above, then resuspended in 400 μL staining buffer. Then cells were analyzed on a BD FACS Accuri C6^+ using a filter of 533/30. The cells of interest were gated using Forward and Side scatter (FSC/SSC). 10,000 singlet events were collected for each specimen.
After purification as described in Example 2, these cyclopeptibodies were used to treat breast cancer cells (MDA-MB-231), which are known to express high levels of integrin αvβ3 on their surface. The cyclopeptibody treated cells were then analyzed by flow cytometry using a procedure similar to that described for the PD-L1-targeting cyclopeptibodies in Example 9.

streptavidin = target: T4, streptavidin (Streptomyces avidinii, UniProt P22629); experiment: in vitro streptavidin binding assay (streptavidin-coated plates, anti-FLAG HRP detection)
T4 construct: purchased Sigma-Aldrich
T4 sequence (P22629 25-183): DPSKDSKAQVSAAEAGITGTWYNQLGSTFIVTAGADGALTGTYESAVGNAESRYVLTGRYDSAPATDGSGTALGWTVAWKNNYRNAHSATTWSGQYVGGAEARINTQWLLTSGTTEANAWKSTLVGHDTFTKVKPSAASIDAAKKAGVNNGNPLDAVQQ
Source text: To prepare a cyclopeptibody capable of binding the protein streptavidin, a cyclic streptavidin-binding peptide previously discovered via phage display (Owens et al, ACS Cent Sci. (2020); 6(3):368-381) was genetically fused to the Fc domain of human IgG1 via a spacer (Entry 1, Table 1). The resulting cyclopeptibody (called Strep-m3-Tras-Fc) was expressed, purified, and characterized as described in Example 4. This construct was confirmed to contain the cyclic peptide constrained via O2beY/Cys thioether (i/i-8) linkage, where ‘i’ indicates the position of the non-canonical amino acid O2beY (also refereed to herein as p-2beF). […]
Streptavidin Binding Assay. […] After washing three times with wash buffer, 100 μL of 2.2 mM o-phenylenediamine dihydrochloride, 4.2 mM urea hydrogen peroxide, 100 mM dibasic sodium phosphate, and 50 mM sodium citrate, pH 5.0, were added to each well, followed by measurement of the absorbance at 450 nm after 10-20 min using a Tecan Infinite 1000 plate reader. Equilibrium dissociation constants (Kp) were determined by fitting the dose-response curves to a 1:1 binding isotherm equation via nonlinear regression. using SigmaPlot. Mean values and standard deviations were calculated from experiments performed in triplicate.

For “FLAG-(GS)2-TLSWZEAMDMCTSS-(Q)6-(Fc)^1-H6 (DYKDDDDKGSGSTLSW[O2beY]EAMDMCTSSQQQQQQ-{Fc-H6}; thioether 17-23 (inferred)) [L2-m5-Tras-Fc]”, the “half-life in human blood serum, indicated” value ([1]; 50% serum, 37° C., readout Shh binding assay) was 30 to 50 h and the “loss in activity in human blood serum” value ([1]; over 24 h, readout Shh binding assay) was “no loss in activity”.
With “Fc domain: human IgG1 Fc domain alone, negative control [reference compound]” the “Shh binding (in words)” value (Sonic Hedgehog (Shh)) was “no significant binding below 500 nM”, the “inhibition of PD-1/PD-L1 interaction (in words)” value (PD-1/PD-L1 interaction) was “did not exhibit significant inhibitory activity” and the “staining / labeling of PD-L1 receptors on MDA-MB-231 cells (in words)” value (“staining / labeling of PD-L1 receptors” below) [2] was “negligible non-specific interaction”. The “staining / labeling of PD-L1 receptors” value ([2]; listed as human IgG1 Fc domain) was “negligible staining”, the “labeling of integrin receptors on MDA-MB-231 cells (in words)” value (“labeling of integrin receptors” below) [3] was “minimal or significantly reduced staining; also recorded: negligible non-specific interaction” and the “streptavidin binding (in words)” value (streptavidin) was “no binding”.
For “FLAG-(GS)2-CRDRGDYZ-(Q)6-IEGR-(Fc)^1-H6 (DYKDDDDKGSGSCRDRGDY[pCaaF]QQQQQQIEGR-{Fc-H6}; thioether 13-20 (inferred)) [RGD5R (pCaaF)-Tras-Fc]”, the “labeling of integrin receptors” value [3] was “label the cells” and the “labeling of integrin receptors” value ([3]; listed as cRGD5R (pCaaF)-Tras-Fc) was “selective labeling of the integrin receptors”.
With “FLAG-(GS)2-CRDRGDYZ-(Q)6-IEGR-(Fc)^1-H6 [RGD5R (pCmF)-Tras-Fc]” the “labeling of integrin receptors” value ([3]; listed as cRGD5R (pCmF)-Tras-Fc) was “selective labeling of the integrin receptors” and the “receptor affinity and labeling efficiency compared to the corresponding cyclic peptides” value ([3]; MDA-MB-231 cells) was “superior receptor affinity and labeling efficiency”.
In the case of “FLAG-(GS)2-WHFSZNWRWLPC-(Q)6-(Fc)^1-H6 (DYKDDDDKGSGSWHFS[pCaaF]NWRWLPCQQQQQQ; thioether 17-24 (inferred); not fully specified (C-terminus)) [cCLP003-Tras-Fc]”, the “half-life in human blood serum” value ([1]; 50% serum, 37° C., readout PD-L1 binding assay) is reported as “over 24 hrs” and the “staining / labeling of PD-L1 receptors” value [2] is reported as “selective labeling of PD-L1 receptors”.
